{"source": "patent US20030125231", "test_system": "Histone III (type ss from calf thymus)", "data": [{"substance": "His-tagged Pim-2 (purified recombinant human Pim-2, expressed in E. coli)", "values": [{"measurement": "Incorporation of 33P into Histone (in vitro kinase assay, 15, 30 and 60 min)", "result": "purified recombinant Pim-2 is active in phosphorylating Histone"}]}]}
